This is an account of results in patent US20140302020A1 (ALETHIA BIOTHERAPEUTICS, published 2014).

Assay [1] addresses T1, recombinant monomeric human clusterin (human, UniProt P10909 23-449).
T1 construct: Tags and processing into alpha and beta chains are not described; also called recombinant human clusterin; immobilized clusterin
Description: SPR (BIAcore 3000), recombinant monomeric human clusterin amine-coupled to a CM3 chip, full length antibody injected. As to the method: (§1) HBST (10 mM Hepes pH 7.4, 135 mM NaCl, 3.4 mM EDTA, 0.005% Tween 20) was used as running buffer for all BIAcore experiments. Recombinant monomeric clusterin was immobilized on a CM3 chip with normal amine coupling method at a flow of 5 μl/min. Surface was activated with 35 μl of a mixture of 50 mM NHS/0.2M EDC. Clusterin in 10 mM Na-acetate pH 4.5 was injected until a desired amount was captured (below 60RU). Unreacted esters were deactivated with 35 μl of 1M ethanolamine hydrochloride-NaOH pH8.5. A control surface was prepared by injecting NHS/EDC and ethanolamine in the same manner.
(§2) Kinetics analysis was conducted at a flow of 50 μl/min. Full length antibodies (mouse or humanized) or Fab were diluted in HBST. Concentration range was from 1.953-31.25 nM for the full length antibodies and 15.625-250 nM for the Fab. Each concentration was injected over the clusterin and a control surface for 5 min followed with a 5 min dissociation wash. The clusterin surface was regenerated between each antibody injection with 50 μl of 20 mM HCl.
On the technique in general: In SPR one partner is held on a chip, and binding of the other changes the refractive index at the surface.

Assay [2] has as its target T1, recombinant monomeric human clusterin. Description: SPR (BIAcore 3000), recombinant monomeric human clusterin amine-coupled to a CM3 chip, Fab injected. As to the method: as §1, §2
Assay [3] shares this target. Description: SPR (BIAcore 3000), recombinant monomeric human clusterin amine-coupled to a CM3 chip, full length antibody injected. On the procedure:
(§3) The purpose of these investigations is to determine the kinetics parameters of anti-clusterin antibodies. In particular, to determine whether the humanization of the 16B5 and 21B12 anti-clusterin monoclonal antibody affects the kinetics parameters of its binding to human clusterin. To this end, a kinetic analysis method was developed using the BIAcore 3000. Human clusterin was immobilized on a sensor chip. Full length antibodies or Fab fragments were injected and allowed to interact with the immobilized clusterin. This example described the exemplary antibody 16B5 but the 21B12 exemplary antibody was prepared and tested in a similar manner.
as §1, §2
The source holds these as a separate data set.

Assay [4] has the same target. Description: SPR (BIAcore 3000), recombinant monomeric human clusterin amine-coupled to a CM3 chip, Fab injected. On the procedure:
as §3, §1, §2
This is another data set of the same source.

T1 sequence (P10909 23-449 limits assumed): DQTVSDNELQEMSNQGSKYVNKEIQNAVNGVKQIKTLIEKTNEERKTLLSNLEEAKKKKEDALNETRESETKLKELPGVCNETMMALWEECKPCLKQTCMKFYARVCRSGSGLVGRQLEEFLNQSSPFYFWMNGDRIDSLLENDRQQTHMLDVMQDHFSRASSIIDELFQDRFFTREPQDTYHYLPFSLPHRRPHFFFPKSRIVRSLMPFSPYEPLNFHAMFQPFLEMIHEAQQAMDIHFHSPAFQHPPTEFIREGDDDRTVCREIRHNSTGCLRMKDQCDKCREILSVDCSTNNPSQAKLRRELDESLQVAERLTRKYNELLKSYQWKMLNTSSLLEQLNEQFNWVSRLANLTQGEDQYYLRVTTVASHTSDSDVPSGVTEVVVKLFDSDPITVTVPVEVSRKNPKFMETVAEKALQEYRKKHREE

B1: humanized 16B5 anti-clusterin antibody (full length, human IgG2) (antibody, V domains shown)
VH: QVQLVQSGAEVKKPGATVKISCKVSGFNIKDIYMHWVQQAPGKGLEWMGRIDPAYGNTKYDPKFQGRVTITADTSTDTAYMELSSLRSEDTAVYYCARRYDTAMDYWGQGTLVTVSS
VL: DIVMTQSPDSLAVSLGERATINCKSSQSLLNSRTRKNYLAWYQQKPGQPPKLLIYWASTRESGVPDRFSGSGSGTDFTLTISSLQAEDVAVYYCKQSYNLWTFGQGTKLEIKV
notes: also called h16B5; H16B5
Usually Kd stands for the equilibrium constant for the complex coming apart. For orientation: koff means the first-order rate constant of dissociation. As usually defined, the kon is the second-order rate constant of association. Regarding B1, in assay [1], the Kd was determined as 4.49 nM, the off-rate constant (koff) was found to be 0.0015 s⁻¹ and the kon was 345000 M⁻¹ s⁻¹.

B2: humanized 16B5 Fab (Fab, V domains shown)
VH: QVQLVQSGAEVKKPGATVKISCKVSGFNIKDIYMHWVQQAPGKGLEWMGRIDPAYGNTKYDPKFQGRVTITADTSTDTAYMELSSLRSEDTAVYYCARRYDTAMDYWGQGTLVTVSS
VL: DIVMTQSPDSLAVSLGERATINCKSSQSLLNSRTRKNYLAWYQQKPGQPPKLLIYWASTRESGVPDRFSGSGSGTDFTLTISSLQAEDVAVYYCKQSYNLWTFGQGTKLEIK
notes: The preparation still held some F(ab')2; also called HH16B5 Fab; HH 16B5 Fab
With B2, in assay [2], the Kd came out at 17.2 nM, the koff stood at 0.0027 s⁻¹ and the kon amounted to 159000 M⁻¹ s⁻¹.

B3: humanized 21B12 anti-clusterin antibody (full length, human IgG2) (antibody, V domains shown)
VH: QVQLVQSGSELKKPGASVKVSCKASGYTFTNYGMHWVRQAPGQGLEWMGWINTYTGEPTYADDFKGRFVFSLDTSVSTAYLQISSLKAEDTAVYYCARDGFLYFFDYWGQGTLVTVSS
VL: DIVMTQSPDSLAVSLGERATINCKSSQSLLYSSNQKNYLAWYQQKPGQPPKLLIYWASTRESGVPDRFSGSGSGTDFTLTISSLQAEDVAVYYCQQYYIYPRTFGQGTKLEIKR
notes: also called HH21B12
Regarding B3, in assay [3], the Kd turned out to be 2.23 nM, the off-rate constant (koff) came out at 0.00083 s⁻¹ and the kon amounted to 374000 M⁻¹ s⁻¹.

B4: 21B12 Fab (Fab, V domains shown)
VH: QIQLVQSGPELKKPGETVKISCKASGYTFTNYGMHWVKQAPGKGLKWMGWINTYTGEPTYADDFKGRFAFSLETSASTAYLQINNLKNEDTATYFCARDGFLYFFDYWGQGTTLTVSS
VL: DIVMSQSPSSLAVSVGEKVTMSCKSSQSLLYSSNQKNYLAWYQQRPGQSPKLLIYWASTRESGVPDRFTGSGSGTDFTLTISSVKAEDLAVYYCQQYYIYPRTFGGGTKLEIK
notes: also called mouse 21B12 Fab; Fab fragment of the murine 21B12 anti-clusterin antibody
Take B4: in assay [4], the equilibrium dissociation constant (Kd) is 25.3 nM, the koff was determined as 0.00352 s⁻¹ and the kon worked out at 215000 M⁻¹ s⁻¹.

B5: mouse 21B12 anti-clusterin monoclonal antibody (full length) (antibody, V domains shown)
VH: QIQLVQSGPELKKPGETVKISCKASGYTFTNYGMHWVKQAPGKGLKWMGWINTYTGEPTYADDFKGRFAFSLETSASTAYLQINNLKNEDTATYFCARDGFLYFFDYWGQGTTLTVSS
VL: DIVMSQSPSSLAVSVGEKVTMSCKSSQSLLYSSNQKNYLAWYQQRPGQSPKLLIYWASTRESGVPDRFTGSGSGTDFTLTISSVKAEDLAVYYCQQYYIYPRTFGGGTKLEIK
notes: also called murine 21B12; parent mouse 21B12
On to B5, for which, in assay [3], the dissociation constant Kd was 5.09 nM, the koff was 0.0015 s⁻¹ and the kon is 362000 M⁻¹ s⁻¹.

B6: mouse 16B5 Fab (Fab, V domains shown)
VH: EVQLQQSGAELVKPGASVRLSCTTSGFNIKDIYMHWVKQRPEQGLEWIGRIDPAYGNTKYDPKFQGKATITADTSSNTAYLQLSSLTSEDTAVYYCARRYDTAMDYWGQGTSVTVSS
VL: DIVMSQSPSSLAVSAGEKVTMSCKSSQSLLNSRTRKNYLAWYQQKPGQSPKLLIYWASTRESGVPDRFTGSGSGTDFTLTISSVQAEDLAVYYCKQSYNLWTFGGGTKLEFK
notes: also called Fab mouse antibody
As for B6, in assay [2], the Kd was determined as 41.6 nM, the koff stood at 0.003 s⁻¹ and the kon came out at 74100 M⁻¹ s⁻¹.

B7: mouse 16B5 anti-clusterin monoclonal antibody (full length) (antibody, V domains shown)
VH: EVQLQQSGAELVKPGASVRLSCTTSGFNIKDIYMHWVKQRPEQGLEWIGRIDPAYGNTKYDPKFQGKATITADTSSNTAYLQLSSLTSEDTAVYYCARRYDTAMDYWGQGTSVTVSS
VL: DIVMSQSPSSLAVSAGEKVTMSCKSSQSLLNSRTRKNYLAWYQQKPGQSPKLLIYWASTRESGVPDRFTGSGSGTDFTLTISSVQAEDLAVYYCKQSYNLWTFGGGTKLEFK
notes: Full-length mouse IgG purified from the original hybridoma; also called murine 16B5; hybridoma 16B5
Turning to B7, in assay [1], the Kd worked out at 6.64 nM, the koff came to 0.0017 s⁻¹ and the kon amounted to 329000 M⁻¹ s⁻¹.
